Variants at the floor of the assay were thinned out.
Legend:
[1] = system: biotinyl-Phe-oxazolone; experiment: self-aminoacylation, catalytic enhancement (BFO) (fold over background); higher = more active; k-Seq, kA / k0A0; sequences stand for … in GGGAAUGGAUCCACAUCUACGAAUUC…UUCACUGCAGACUUGACGAAGCUG
Summary of the method: (§1)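 Mutagenized RNA pools with a 21-nt variable region (0.43 μM) were reacted with each biotinyl-aminoacyl-oxazolone at 2–1250 μM for 90 minutes at room temperature, in 50 μL HEPES/NaCl/KCl/MgCl2/CaCl2 buffer containing 5% acetonitrile at pH 6.9–7.0. RNA captured on streptavidin was quantified by triplicate qPCR and by Illumina sequencing. The fraction reacted for each sequence was fit to a pseudo-first-order model with bootstrapping, and catalytic enhancement is the median kA divided by the uncatalyzed rate, taken as the low-activity peak of a bimodal Gaussian fit.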

[2] = system: biotinyl-Ile-oxazolone; experiment: self-aminoacylation, catalytic enhancement (BIO) (fold over background); higher = more active; k-Seq, kA / k0A0; sequences stand for … in GGGAAUGGAUCCACAUCUACGAAUUC…UUCACUGCAGACUUGACGAAGCUG
Summary of the method: as §1

[3] = system: biotinyl-Met-oxazolone; experiment: self-aminoacylation, catalytic enhancement (BMO) (fold over background); higher = more active; k-Seq, kA / k0A0; sequences stand for … in GGGAAUGGAUCCACAUCUACGAAUUC…UUCACUGCAGACUUGACGAAGCUG
Summary of the method: as §1

[4] = system: biotinyl-Val-oxazolone; experiment: self-aminoacylation, catalytic enhancement (BVO) (fold over background); higher = more active; k-Seq, kA / k0A0; sequences stand for … in GGGAAUGGAUCCACAUCUACGAAUUC…UUCACUGCAGACUUGACGAAGCUG
Summary of the method: as §1

[5] = system: biotinyl-Leu-oxazolone; experiment: self-aminoacylation, catalytic enhancement (BLO) (fold over background); higher = more active; k-Seq, kA / k0A0; sequences stand for … in GGGAAUGGAUCCACAUCUACGAAUUC…UUCACUGCAGACUUGACGAAGCUG
Summary of the method: as §1

[6] = system: biotinyl-Trp-oxazolone; experiment: self-aminoacylation, catalytic enhancement (BWO) (fold over background); higher = more active; k-Seq, kA / k0A0; sequences stand for … in GGGAAUGGAUCCACAUCUACGAAUUC…UUCACUGCAGACUUGACGAAGCUG
Summary of the method: as §1

| Sequence | self-aminoacylation [1] | self-aminoacylation [2] | self-aminoacylation [3] | self-aminoacylation [4] | self-aminoacylation [5] | self-aminoacylation [6] |
| --- | --- | --- | --- | --- | --- | --- |
| CCACACUUCAAGCAACUGGUC [Fam1B.1 aminoacylation ribozyme variant] | 0.699 | 0.57 | 0.52 | 0.616 | 0.505 | 0.338 |
| CCACACUUCAAGCAAGCGGCC [Fam1B.1 aminoacylation ribozyme variant] | 0.898 | 2.38 | 2.63 | 2.96 | 3.28 | 1.46 |
| CCACACUUCAAGCAAGCGGUC [Fam1B.1 aminoacylation ribozyme variant] | 0.769 | 0.87 | 0.791 | 0.961 | 0.785 | 0.62 |
| CCACACUUCAAGCAAUAGCUC [Fam1B.1 aminoacylation ribozyme variant] | 0.859 | 0.691 | 0.708 | 0.816 | 0.941 | 0.427 |
| CCACACUUCAAGCAAUCACUC [Fam1B.1 aminoacylation ribozyme variant] | 0.957 | 0.591 | 0.509 | 0.669 | 0.43 | 0.564 |
| CCACACUUCAAGCAAUCCGUU [Fam1B.1 aminoacylation ribozyme variant] | 0.872 | 1.4 | 1.31 | 1.27 | 1.27 | 1.45 |
| CCACACUUCAAGCAAUCGAAC [Fam1B.1 aminoacylation ribozyme variant] | 0.953 | 0.557 | 0.402 | 0.76 | 0.41 | 0.578 |
| CCACACUUCAAGCAAUCGCUC [Fam1B.1 aminoacylation ribozyme variant] | 1.2 | 1.33 | 1.3 | 1.44 | 1.27 | 1.29 |
| CCACACUUCAAGCAAUCGGAG [Fam1B.1 aminoacylation ribozyme variant] | 0.817 | 0.874 | 0.743 | 1.16 | 0.591 | 1.03 |
| CCACACUUCAAGCAAUCGUAC [Fam1B.1 aminoacylation ribozyme variant] | 1.29 | 0.473 | 0.351 | 0.669 | 0.58 | 0.546 |
| CCACACUUCAAGCAAUCUCUC [Fam1B.1 aminoacylation ribozyme variant] | 0.826 | 0.61 | 0.514 | 0.669 | 0.385 | 0.383 |
| CCACACUUCAAGCAAUCUGGC [Fam1B.1 aminoacylation ribozyme variant] | 0.94 | 0.851 | 0.71 | 0.861 | 0.804 | 0.834 |
| CCACACUUCAAGCAAUGGGUA [Fam1B.1 aminoacylation ribozyme variant] | 0.907 | 1.35 | 1.39 | 1.4 | 1.31 | 1.35 |
| CCACACUUCAAGCAAUGGGUC [Fam1B.1 aminoacylation ribozyme variant] | 0.841 | 0.78 | 0.677 | 0.793 | 0.677 | 0.627 |
| CCACACUUCAAGCAAUGGUUC [Fam1B.1 aminoacylation ribozyme variant] | 0.776 | 0.619 | 0.61 | 0.574 | 0.596 | 0.678 |
| CCACACUUCAAGCAAUUGGGC [Fam1B.1 aminoacylation ribozyme variant] | 1 | 1.79 | 2.12 | 1.98 | 2.16 | 2.98 |
| CCACACUUCAAGCACGCGGUC [Fam1B.1 aminoacylation ribozyme variant] | 0.928 | 1.76 | 2.3 | 2.1 | 1.54 | 1.91 |
| CCACACUUCAAGCAGUCAGUC [Fam1B.1 aminoacylation ribozyme variant] | 0.947 | 0.788 | 0.562 | 0.91 | 0.717 | 0.54 |
| CCACACUUCAAGCAUCCGGUC [Fam1B.1 aminoacylation ribozyme variant] | 0.999 | 1.03 | 0.859 | 1.38 | 0.817 | 1.11 |
| CCACACUUCAAGCAUUCGGGC [Fam1B.1 aminoacylation ribozyme variant] | 1.51 | 2.54 | 2.37 | 2.83 | 1.79 | 2.99 |
| CCACACUUCAAGCAUUCGGUC [Fam1B.1 aminoacylation ribozyme variant] | 0.969 | 1.12 | 0.887 | 1.27 | 0.899 | 0.943 |
| CCACACUUCAAGCAUUCUGUC [Fam1B.1 aminoacylation ribozyme variant] | 0.618 | 0.414 | 0.32 | 0.497 | 0.284 | 0.372 |
| CCACACUUCAAGCCACCGGUC [Fam1B.1 aminoacylation ribozyme variant] | 1.28 | 1.64 | 1.43 | 2.12 | 1.47 | 1.23 |
| CCACACUUCAAGCGAUCGGCC [Fam1B.1 aminoacylation ribozyme variant] | 20.2 | 3.31 | 4.7 | 5.25 | 2.6 | 7.01 |
| CCACACUUCAAGCGAUCGGUG [Fam1B.1 aminoacylation ribozyme variant] | 41.8 | 4.19 | 6.68 | 4.66 | 8.84 | 6.74 |

Reference: the supplement of paper PMC9233669
